For 1 molecule, Ki results are on record in patent publication US7285654 (SIGNAL PHARMACEUTICALS, dated 2007).

Square brackets hold non-standard residues; d marks the D form. Ends that are not written are not given here. pS = N[C@@H](COP(=O)(O)O)C(=O)O

This test deals with IKK signalsome (stimulus-inducible IκB kinase complex) immunopurified from TNFα-stimulated HeLa cells (human). Description: product inhibition of immunopurified IKK signalsome; 32P incorporation into GST-IκBα (1-54), TCA precipitation, Dixon analysis.
Sequence of IKK signalsome (stimulus-inducible IκB kinase complex) immunopurified from TNFα-stimulated HeLa cells (human) (chain, as listed by the source, chain 1 of 3): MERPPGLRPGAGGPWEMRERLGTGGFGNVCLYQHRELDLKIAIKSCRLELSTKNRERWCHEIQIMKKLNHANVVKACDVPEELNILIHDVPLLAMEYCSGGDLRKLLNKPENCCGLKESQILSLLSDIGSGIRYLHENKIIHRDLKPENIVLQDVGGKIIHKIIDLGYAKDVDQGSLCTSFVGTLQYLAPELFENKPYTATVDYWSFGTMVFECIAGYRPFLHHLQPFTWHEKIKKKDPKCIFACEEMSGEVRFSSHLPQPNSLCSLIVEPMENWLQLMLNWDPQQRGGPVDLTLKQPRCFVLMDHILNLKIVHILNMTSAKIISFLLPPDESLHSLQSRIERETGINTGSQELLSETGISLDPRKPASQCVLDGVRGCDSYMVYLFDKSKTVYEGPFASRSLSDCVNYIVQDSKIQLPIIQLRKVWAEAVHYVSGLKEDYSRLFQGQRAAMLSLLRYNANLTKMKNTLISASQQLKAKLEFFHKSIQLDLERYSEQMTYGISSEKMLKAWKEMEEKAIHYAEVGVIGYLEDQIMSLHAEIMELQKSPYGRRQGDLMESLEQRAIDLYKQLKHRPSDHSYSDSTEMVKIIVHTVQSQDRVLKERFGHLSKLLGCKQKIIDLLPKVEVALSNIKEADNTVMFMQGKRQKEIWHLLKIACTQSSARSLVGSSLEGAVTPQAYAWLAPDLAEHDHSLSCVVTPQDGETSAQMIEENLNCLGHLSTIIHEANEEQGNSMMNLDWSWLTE
Sequence of IKK signalsome (stimulus-inducible IκB kinase complex) immunopurified from TNFα-stimulated HeLa cells (human) (chain, as listed by the source, chain 2 of 3): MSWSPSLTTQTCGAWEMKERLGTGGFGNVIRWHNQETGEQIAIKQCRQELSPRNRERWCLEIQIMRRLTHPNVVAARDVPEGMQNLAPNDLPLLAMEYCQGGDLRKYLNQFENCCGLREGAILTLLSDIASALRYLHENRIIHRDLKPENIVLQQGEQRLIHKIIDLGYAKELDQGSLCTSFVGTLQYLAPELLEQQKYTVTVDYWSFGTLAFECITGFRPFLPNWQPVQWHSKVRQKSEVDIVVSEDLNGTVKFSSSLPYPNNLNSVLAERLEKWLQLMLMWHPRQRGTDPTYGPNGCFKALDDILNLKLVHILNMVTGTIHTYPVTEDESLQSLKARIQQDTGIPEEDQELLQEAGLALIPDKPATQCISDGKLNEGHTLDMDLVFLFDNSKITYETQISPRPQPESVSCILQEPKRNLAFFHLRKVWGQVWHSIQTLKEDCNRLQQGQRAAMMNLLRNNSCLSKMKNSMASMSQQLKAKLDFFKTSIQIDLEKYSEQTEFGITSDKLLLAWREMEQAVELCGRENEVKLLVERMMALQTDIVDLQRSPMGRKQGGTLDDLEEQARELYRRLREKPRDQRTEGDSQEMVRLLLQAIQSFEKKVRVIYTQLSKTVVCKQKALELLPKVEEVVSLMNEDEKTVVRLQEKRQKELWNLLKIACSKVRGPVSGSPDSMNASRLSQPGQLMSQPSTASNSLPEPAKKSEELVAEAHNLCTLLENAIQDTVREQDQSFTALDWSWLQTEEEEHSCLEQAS
Sequence of IKK signalsome (stimulus-inducible IκB kinase complex) immunopurified from TNFα-stimulated HeLa cells (human) (chain, as listed by the source, chain 3 of 3): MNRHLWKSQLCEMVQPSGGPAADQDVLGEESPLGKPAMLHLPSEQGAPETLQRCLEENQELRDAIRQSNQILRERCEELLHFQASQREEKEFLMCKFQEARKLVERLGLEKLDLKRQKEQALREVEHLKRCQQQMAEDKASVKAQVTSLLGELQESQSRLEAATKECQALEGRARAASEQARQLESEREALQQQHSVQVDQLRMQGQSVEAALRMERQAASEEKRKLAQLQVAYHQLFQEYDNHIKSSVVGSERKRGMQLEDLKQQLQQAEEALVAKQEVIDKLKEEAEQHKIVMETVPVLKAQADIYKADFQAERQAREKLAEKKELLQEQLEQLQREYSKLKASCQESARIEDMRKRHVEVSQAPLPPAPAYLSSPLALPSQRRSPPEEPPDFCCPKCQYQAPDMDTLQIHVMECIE

B1: IκBα (21-41) peptide P32,36 (doubly phosphorylated IκBα peptide bearing phosphoserines at both positions 32 and 36) (peptide)
peptide: CKKERLLDDRHD[pS]GLD[pS]MKDEE
notes: The phosphorylated forms are described as the same peptide chemically phosphorylated; also called P32, 36 peptide
Turning to B1, affinity was put at a Ki of 14 µM.
